In this test the target is Mouse soluble TWEAK (mouse) (UniProt O54907). The test is described as follows: receptor interaction ELISA: antibody pre-incubated with mouse soluble TWEAK, binding to coated mouse Fn14:Fc. In general terms: An ELISA detects its analyte on a solid surface through an enzyme-linked reagent.

Substitutions are numbered along the chain they refer to.

B1: TW205 (antibody, V domains shown)
VH: QIHLQESGLGLVKPSQSLTLTCSVTGFSITTPDYSWHWIRQFPGQTLEWMGFLYYEGDTYYNPSLKSRISIARDASKNQFFLQLKSVTTEDTATYFCVRRKYSGYGNWFAYWGQGTQVTVSS
VL: QPVLTQAPSASASLRASVKLTCTLSSQHSTYYIEWYQQHPDKAPRYVMYVDSDGSHIKGDGVPDRFSGSSSGARRYLSISNLQPEDEAIYHCGVYDSTAGAVFGSGTQLTVLG
In general, IC50 refers to the concentration at which inhibition is half-maximal. Consider B1, for which the concentration for half-maximal inhibition (IC50) stood at 5.1 ng/mL.

B2: TW202 (antibody, V domains shown)
VH: B1 VH with I2L, H3Q, F42L, S86A, V98A, Q117L, S122L
VL: B1 VL with A7S, H39R, R45K, V50L, V62I, R74H
For the molecule B2, the IC50 worked out at 9 ng/mL.

B3: TW212 (antibody)
VL: DIVLTQSPAYLTMSPGQTTTISCKASQSVSIGPIHLMHWYQQKPGQPPRLLIYGASNPESGVPARFSGSGSGTDFTLTIHPVEADDAATYFCQQGKESPRTFGPGTKLEITRADAKPTVSIFPPSSEQLGTGSATLVCFVNNFYPKDINVKWKVDGSEKRDGVLQSVTDQDSKDSTYSLSSTLSLTKADYERHNLYTCEVTHKTSTAAIVKTLNRNEC
VH: QVQLQESGPGLLKPAQSLSLTCTVTGYSIRSGYWWSWIRQQPGKGLEWMGQIYNKGNTDNNPSLKSQITMTVDTSKNQFFLRLRSVTTEDTAVYYCARVFWDDAYFDVWGQGIQVTVSSATTTAPSVYPLAPACDSTTSTTNTVTLGCLVKGYFPEPVTVSWNSGALTSGVHTFPSVLHSGLYSLSSSVTVPSSTWPSQTVTCNVAHPASSTKVDKKIVPGDGSGCKPCTCPGPEVSSVFIFPPKPKDVLTISLSPKVTCVVVDISQDDPEVQFSWFIDGKEVHTAVTQPREEQFNSTYRMVSVLPILHQDWLNGKEFKCKVNSPAFPVPIEKTISKRRGQLQVPQVYTMPPPKEQLTQSQVSLTCMIKGFYPEDIDVAWQKNGQPEQSFKNTPPVLDTDETYFLYSKLDVKKDDWEKGDTFTCSVVHEALHNHHTEKTLSQRPGK
Regarding B3, the 50% inhibitory concentration (IC50) stood at 4.6 ng/mL.

B4: Antibody 15 (antibody, V domains shown)
VH: QVQLQESGPGLVKPSETLSLTCAVSGYSIRSGYWWSWIRQPPGKGLEWIGQIYNKGNTDNNPALKSRVTISVDTSKNQFSLKLSSVTAADTAVYYCARVFWDDAYFDVWGQGTMVTVSS
VL: EIVLTQSPATLSLSPGERATLSCKASQSVSIGPIHLMHWYQQKPGQAPRLLIYGASNPESGIPARFSGSGSGTDFTLTISSLEPEDFAVYYCQQGKESPRTFGQGTKLEIK
The molecule B4 displayed a 50% inhibitory concentration (IC50) of 5 ng/mL.

B5: Antibody 18 (antibody, V domains shown)
VH: B4 VH with A23T, N61S, A63S
VL: B4 VL
Turning to B5, the IC50 was found to be 6 ng/mL.

B6: Antibody 24 (antibody, V domains shown)
VH: B4 VH with A23T, N61S, A63S
VL: B4 VL with A9G, A64D, S81R
Consider B6, for which the IC50 is 8 ng/mL.

B7: Antibody 21 (antibody, V domains shown)
VH: B4 VH
VL: B4 VL with A9G, A64D, S81R
Molecule B7 registered an IC50 of 5 ng/mL.

B8: Antibody 25 (antibody, V domains shown)
VH: B4 VH with P41Q, R67Q
VL: B4 VL with A9G, A64D, S81R
B8 came in with an IC50 of 18 ng/mL.

B9: Antibody 23 (antibody, V domains shown)
VH: B4 VH with A23T
VL: B4 VL with A9G, A64D, S81R
Turning to B9, the IC50 came out at 6 ng/mL.

B10: Antibody 16 (antibody, V domains shown)
VH: B4 VH with N61S, A63S
VL: B4 VL
For the molecule B10, the half-maximal inhibitory concentration (IC50) amounted to 7 ng/mL.

B11: Antibody 26 (antibody, V domains shown)
VH: B4 VH with P41Q, N61S, A63S, R67Q
VL: B4 VL with A9G, A64D, S81R
B11 had an IC50 of 36 ng/mL.

B12: Antibody 19 (antibody, V domains shown)
VH: B4 VH with P41Q, R67Q
VL: B4 VL
In turn, B12 had a concentration for half-maximal inhibition (IC50) of 7 ng/mL.

B13: Antibody 17 (antibody, V domains shown)
VH: B4 VH with A23T
VL: B4 VL
For the molecule B13, the concentration for half-maximal inhibition (IC50) amounted to 6 ng/mL.

B14: Antibody 20 (antibody, V domains shown)
VH: B4 VH with P41Q, N61S, A63S, R67Q
VL: B4 VL
Molecule B14 came in with a concentration for half-maximal inhibition (IC50) of 14 ng/mL.

B15: Antibody 22 (antibody, V domains shown)
VH: B4 VH with N61S, A63S
VL: B4 VL with A9G, A64D, S81R
The molecule B15 came in with an IC50 of 5 ng/mL.

These data come from patent publication US20100255008A1.
